Experimental data from patent US20180185504A1 (Regeneron, published 2018).

Columns and labels:
[1] = target: T1, human PRLR construct with an HA tag on HEK293/hPRLR cells (human, UniProt P16471 25-622); test: FACS on HEK293/hPRLR cells
T1 sequence: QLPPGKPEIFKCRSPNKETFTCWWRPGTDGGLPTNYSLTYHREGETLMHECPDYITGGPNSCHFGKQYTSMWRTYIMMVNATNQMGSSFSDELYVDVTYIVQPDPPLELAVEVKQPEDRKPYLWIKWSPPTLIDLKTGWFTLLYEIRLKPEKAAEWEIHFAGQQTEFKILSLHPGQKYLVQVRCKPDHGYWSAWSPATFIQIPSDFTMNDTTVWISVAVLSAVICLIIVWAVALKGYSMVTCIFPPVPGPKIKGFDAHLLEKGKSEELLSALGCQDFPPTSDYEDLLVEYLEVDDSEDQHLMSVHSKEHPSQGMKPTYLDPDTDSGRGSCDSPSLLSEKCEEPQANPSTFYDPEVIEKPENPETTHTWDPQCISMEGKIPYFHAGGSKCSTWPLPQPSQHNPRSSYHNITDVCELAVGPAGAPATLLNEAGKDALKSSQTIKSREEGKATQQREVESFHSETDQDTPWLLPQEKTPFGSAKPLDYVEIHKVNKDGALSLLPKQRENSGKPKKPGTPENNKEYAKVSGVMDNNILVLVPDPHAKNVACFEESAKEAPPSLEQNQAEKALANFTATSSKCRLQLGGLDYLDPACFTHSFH

[2] = target: T2, human PRLR on cells (endogenous on T47D, T47D#11, MCF7); introduced in HEK293/hPRLR/STAT5-Luc, 293/hPRLR, … (human, UniProt P16471 25-622); test: imaging of alexa488 intensity on T47D cells
T2 construct: no tag is stated for these lines; also called prolactin receptor
T2 sequence: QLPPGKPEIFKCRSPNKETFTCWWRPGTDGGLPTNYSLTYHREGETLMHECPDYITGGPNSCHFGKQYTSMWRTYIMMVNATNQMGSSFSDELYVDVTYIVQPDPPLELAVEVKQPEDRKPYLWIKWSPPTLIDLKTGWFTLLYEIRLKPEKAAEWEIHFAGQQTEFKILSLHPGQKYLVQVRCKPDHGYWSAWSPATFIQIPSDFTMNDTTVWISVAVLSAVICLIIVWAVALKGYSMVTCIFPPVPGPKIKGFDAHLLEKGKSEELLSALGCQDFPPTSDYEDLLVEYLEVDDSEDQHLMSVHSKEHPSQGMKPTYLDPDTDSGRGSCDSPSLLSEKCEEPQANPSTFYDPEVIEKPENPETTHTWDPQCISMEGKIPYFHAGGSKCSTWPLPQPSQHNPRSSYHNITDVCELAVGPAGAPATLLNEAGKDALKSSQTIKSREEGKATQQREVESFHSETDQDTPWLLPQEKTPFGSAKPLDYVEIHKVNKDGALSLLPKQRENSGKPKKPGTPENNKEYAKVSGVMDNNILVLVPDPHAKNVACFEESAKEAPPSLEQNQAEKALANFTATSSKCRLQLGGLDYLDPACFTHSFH
Procedure: Briefly, 20,000 T47D cells were seeded in collagen coated 96 well plates. […] Cells were then incubated with alexa488 conjugated anti-hFc Fab secondary antibodies for 30 minutes on ice followed by two additional PBS washes. Antibodies were allowed to internalize for 1 h at 37° C. in internalization buffer (PBS+2% FBS) or remained at 4° C. Cells were fixed in 4% formaldehyde, nuclei were stained with DRAQ5 (Cell signaling), and images were acquired on the ImageXpress micro XL (Molecular Devices). Whole cell alexa488 intensity at 37° C. (Binding) and the alexa488 intensity in the intracellular vesicles at 37° C. (Internalization) were determined via Columbus image analysis software (PerkinElmer).

[3] = target: T2, human PRLR on cells (endogenous on …); test: cell-based or functional assay
[4] = target: T2, human PRLR on cells (endogenous on …); test: cell-based or functional assay; remark: listed apart in the source
[5] = target: T3, monkey macaca fascicularis PRLR construct with an HA tag on HEK293/mfPRLR cells (macaca fascicularis, UniProt A0A2K5WXK1 25-619); test: FACS on HEK293/mfPRLR cells
T3 construct: stably transfected into HEK293
T3 sequence: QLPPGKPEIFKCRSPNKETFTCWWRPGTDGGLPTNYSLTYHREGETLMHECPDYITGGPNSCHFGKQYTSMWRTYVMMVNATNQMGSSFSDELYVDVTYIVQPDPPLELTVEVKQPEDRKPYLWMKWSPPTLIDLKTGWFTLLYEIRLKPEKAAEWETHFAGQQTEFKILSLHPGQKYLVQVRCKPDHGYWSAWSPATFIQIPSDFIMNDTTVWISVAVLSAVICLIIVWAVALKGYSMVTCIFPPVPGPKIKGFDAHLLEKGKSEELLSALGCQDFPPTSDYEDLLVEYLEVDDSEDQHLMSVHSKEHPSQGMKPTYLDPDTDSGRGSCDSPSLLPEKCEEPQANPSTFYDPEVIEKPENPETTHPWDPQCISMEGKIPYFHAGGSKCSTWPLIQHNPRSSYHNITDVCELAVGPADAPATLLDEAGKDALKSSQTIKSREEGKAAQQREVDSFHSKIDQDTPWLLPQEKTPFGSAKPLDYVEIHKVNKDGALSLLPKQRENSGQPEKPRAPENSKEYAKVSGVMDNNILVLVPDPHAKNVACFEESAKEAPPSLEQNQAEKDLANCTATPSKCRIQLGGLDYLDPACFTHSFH

| Binder | FACS Cell Binding (Fold Above Background) [1] | % Total Binding relative to Control I [2] | IC50 of Blocking 5 nM PRL [M] (STAT5-Luc reporter, HEK293/hPRLR/STAT5-Luc cells) [3] | Percent Blocking at 100 nM Antibody (STAT5-Luc reporter) [3] | % Internalization relative to Control I (T47D cells, imaging) [4] | FACS Cell Binding (Fold Above Background) [5] |
| --- | --- | --- | --- | --- | --- | --- |
| H1H6953N (antibody, human IgG1, V domains shown, also called H1M6953N) VH: EVQLLESGGGLVQPGGTLRLSCAASGFTFSAYAMSWVRQAPGKGLEWVSSINVRAGDTYYADSVKGRFTISRDNSKNTLFLLMNSLRAEDTAAYYCAKARYSSNWGFDFWGQGTLVTVSS VL: DIVMTQSPDSLTVSLGARTTINCQSSQTILHSSNNHNYLAWYQQKPGLPPKLLIYWSSTRESGVPDRFSGSGSGTDFTLTISSLQAEDVAIYYCQQYSNTPYTFGQGTKLEIN | 37 fold | 164% | 1.05e-10 M | 100% | 154% | 29 fold |
| H1H6795P (antibody, human IgG1, V domains shown, human IgG1 Fc (H1H)) VH: QVQLVQSGAEVKKPGASVKVSCKASGYTFGTSGITWVRQAPGQGLEWMGWSSAYNGKTDYAQKFQDRVTMTTDTSTTTGYMEMRSLTSDDTAVYYCTTVVRRPFDFWGQGTLVTVSS VL: DIQMTQSPSSLSASVGDRVTITCRASQDINNFLAWFQQKPGKAPKSLIYAASSLQSGVPSKFSGGGSGTDFALTISSLQPEDFATYYCQQYSSYPITFGQGTRLEIK | 1 fold | 123% | – | 0% | 151% | 22 fold |
| H1H6807P (antibody, V domains shown, human IgG1 Fc (H1H)) VH: QVQLVESGGGVVQPGRSLRLSCAASGFTFSDYNMHWVRQAPGKGLEWVAVIWYDGSNKHYADSVKGRFTISRDNSKNTLYLQMNSLRAEDTAVYYCARDGFTIFGMVLDYWGQGTLVTVSS VL: not shown | 32 fold | 153% | 6e-10 M | 100% | 147% | 27 fold |
| H1H6790P (antibody, human IgG1, V domains shown, human IgG1 Fc (H1H)) VH: EVQLVESGGGLVQPGGSLRLSCAASGFTFSSYAMTWVRQAPGKGLEWVSAITGSVGNTYYADSVKGRFTISRDNSKNTLYLQMNSLGAEDTAEYYCAKGAGMTTNWYLDLWGRGTLVTVSS VL: DIVMTQSPDSLAVSLGARATINCKSSQSVLYSSNNQNYLTWYQQKPGQPPKLLIKWASTRESGVPDRFSGSGSGTDFTLTISSLQAEDVAVYYCQQYASSPYTFGQGTKLEIK | 37 fold | 123% | 2.06e-10 M | 100% | 147% | 24 fold |
| H1H6797P (antibody, human IgG1, V domains shown, human IgG1 Fc (H1H)) VH: EVQLVESGGGLVQPGGSLRLSCIVSGFTFSGSWMSWVRQLPGKGLEWVANIKEDGSDSYYVDSVEGRFTISRDNAKSSLYLQMNSLRVDDTAVYFCARARTVPLHYWGQGTLVTVSS VL: DIQMTQSPSTLSASVGDRVTITCRASQSINIWLAWYQQKPGKAPKLLIYRASYLESGVPSSFAGGGSGTEFTLTISSLQPDDFGTYYCQHYNSYPFTFGQGTKLEIK | 1 fold | 151% | – | 0% | 145% | 25 fold |
| H1H6804P (antibody, human IgG1, V domains shown, human IgG1 Fc (H1H)) VH: QVTLKESGPVLVKPTQTLSLTCTVSGFSLSDAGMGVSWIRQPPGKALEWLAHIFSNDGKSYSTSLKSRLTISKDTSKRQVVLTMTNMDPVDTATYYCARIRTGTYSLYLDYWGQGTLVTVSS VL: DIQMTQSPSSLSASVGDRVTITCRASQSINSYLNWYQQKPGKAPKLLLYFASSLQSGVPSRFSGSGSGTDFTLTISSLQPEDFASYYCQESYSTPWTFGQGTKVEIK | 1 fold | 150% | 7.89e-09 M | 100% | 139% | 29 fold |
